In the test the target is UCH37•RPN13 (UniProt Q16186). Put plainly: steady-state enzyme inhibition kinetics; cleavage of K6/K48 tri-Ub by UCH37•RPN13 (0.5 μM) with varied Nb-ncS1; 50 mM HEPES pH 7.5, 50 mM NaCl, 1 mM DTT; 37 °C; competitive inhibition fit.
Sequence of UCH37•RPN13 (Q16186 whole entry, looked up): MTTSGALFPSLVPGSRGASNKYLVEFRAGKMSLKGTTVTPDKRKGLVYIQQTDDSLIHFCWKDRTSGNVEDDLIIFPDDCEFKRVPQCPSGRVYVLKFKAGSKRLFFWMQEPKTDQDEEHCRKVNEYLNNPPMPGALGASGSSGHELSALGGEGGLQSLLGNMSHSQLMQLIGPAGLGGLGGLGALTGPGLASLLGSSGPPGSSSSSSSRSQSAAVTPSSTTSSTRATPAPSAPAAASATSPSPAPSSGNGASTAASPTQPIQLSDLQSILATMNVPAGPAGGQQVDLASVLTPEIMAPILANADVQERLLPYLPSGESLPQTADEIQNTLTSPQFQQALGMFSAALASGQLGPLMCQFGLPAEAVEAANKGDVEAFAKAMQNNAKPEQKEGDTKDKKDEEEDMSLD

B1: Nb-ncS1 (His-tagged) (VHH)
VHH: RVQLQESGGGLVQAGGSLRLSCAASGYIFRSYRMGWYRQAPGKERELVAAIGLGGNTYYADSVKGRFTISRDNAKNTVYQQMNSLKPEDTAVYYCAALYGKPPAFSPFPYWGQGTQVTVSS
For the molecule B1, the Ki – broadly, a dissociation constant, usually derived from enzyme kinetics or from competition with a known ligand – is 120 nM.

The values are drawn from paper doi:10.1101/2025.08.11.669711.
